Reference: article PMC12259648

Columns and labels:
212579 G62HS (human) = experiment: SPR; Biacore 1K+; purified IgG captured (about 100 RU) on anti-human IgG (Fc) on a CM5 chip; Phl p 5 injected at 1.875-60 nM, 25 uL/min, 120 s, 1360 s dissociation; PBS with 0.02% Tween 20; 1:1 Langmuir model
[1] = molecular target: 212579 T40HN, I29LV, T40LA, V108LG (human); experiment: as above
[2] = molecular target: 212579 I29LV, T40LA, V108LG (human); experiment: as above
212579 I53HV (human) = experiment: as above
[3] = molecular target: 212579 T40HN, I53HV (human); experiment: as above
212579 E38HS (human) = experiment: as above
212579 T40HN (human) = experiment: as above
[4] = molecular target: 212579 I53HV, I29LV, T40LA, V108LG (human); experiment: as above
[5] = molecular target: 212579 T40HN, I53HV, H113HY (human); experiment: as above
212579 H113HY (human) = experiment: SPR; Biacore 1K+; antibody 212579 H113HY captured from culture supernatant without prior purification on anti-human IgG (Fc) on a CM5 chip; Phl p 5 injected at 1.875-60 nM; PBS with 0.02% Tween 20; 1:1 Langmuir model

- Kd (212579 G62HS (human)): 0.27 nM
- koff (212579 G62HS (human)): 0.00011 s⁻¹
- kon (212579 G62HS (human)): 420000 M⁻¹ s⁻¹
- Kd [1]: 4.3 nM
- koff [1]: 0.0005 s⁻¹
- kon [1]: 120000 M⁻¹ s⁻¹
- Kd [2]: 1.5 nM
- koff [2]: 0.00035 s⁻¹
- kon [2]: 230000 M⁻¹ s⁻¹
- Kd (212579 I53HV (human)): 0.31 nM
- koff (212579 I53HV (human)): 0.00013 s⁻¹
- kon (212579 I53HV (human)): 420000 M⁻¹ s⁻¹
- Kd [3]: 0.56 nM
- koff [3]: 0.00014 s⁻¹
- Kd (212579 E38HS (human)): 9.9 nM
- koff (212579 E38HS (human)): 0.00273 s⁻¹
- kon (212579 E38HS (human)): 280000 M⁻¹ s⁻¹
- Kd (212579 T40HN (human)): 0.49 nM
- koff (212579 T40HN (human)): 0.00016 s⁻¹
- kon (212579 T40HN (human)): 320000 M⁻¹ s⁻¹
- Kd [4]: 1.5 nM
- koff [4]: 0.00033 s⁻¹
- kon [4]: 220000 M⁻¹ s⁻¹
- Kd [5]: 0.92 nM
- koff [5]: 0.00014 s⁻¹
- kon [5]: 160000 M⁻¹ s⁻¹
- Kd (212579 H113HY (human)): 1.4 nM
- koff (212579 H113HY (human)): 0.00036 s⁻¹
- kon (212579 H113HY (human)): 260000 M⁻¹ s⁻¹
Substance: Phl p 5.0101 (natural protein)
